3 substances from publication PMC4831350 can be followed below.

Experiment [1] has as its target human receptor for advanced glycation endproducts (RAGE) on A375-hRAGE cells (human) (UniProt Q15109).
Experiment [2] deals with receptor for advanced glycation endproducts (RAGE) on wild-type A375 cells (human (endogenous in A375)) (UniProt Q15109).
Experiment [3] concerns the target extracellular S100A4 secreted by A375-hS100A4 cells (human) (UniProt P26447).
The target of experiment [4] is extracellular S100A4 secreted by A375 cells (human (endogenous in A375)) (UniProt P26447).

In experiment [1], “extracellular S100A4 secreted by A375 cells (from UniProt P26447 1-101) (natural protein)” came in with a decrease of invasion of A375-hRAGE cells (Boyden chamber with Matrigel) with blocking anti-RAGE antibody (10 μg/ml; R&D), against untreated cells of 15% and a decrease of migration of A375-hRAGE cells (Boyden chamber) with blocking anti-RAGE antibody (10 μg/ml; R&D), against untreated cells of 10%.

As to “recombinant human S100A4 (from UniProt P26447 1-101) (natural protein)”, in experiment [2], the increase of invasion of A375 cells (Boyden chamber with Matrigel) with recombinant S100A4 (150 ng/ml), against untreated cells came to 21% and the increase of migration of A375 cells (Boyden chamber) with recombinant S100A4 (150 ng/ml), against untreated cells was found to be 36%. In addition, in experiment [1], the increase of invasion of A375-hRAGE cells (Boyden chamber with Matrigel) with recombinant S100A4 (3000 ng/ml), against untreated cells was determined as 13% and the increase of migration of A375-hRAGE cells (Boyden chamber) with recombinant S100A4 (3000 ng/ml), against untreated cells was 23%.

In experiment [3], “soluble RAGE (sRAGE) (domain or fragment)” yielded a decrease of invasion of A375-hS100A4 cells (Boyden chamber with Matrigel) with sRAGE (150 ng/ml), against untreated cells; blocks extracellular S100A4 from membrane RAGE of 15% and a decrease of migration of A375-hS100A4 cells (Boyden chamber) with sRAGE (150 ng/ml), against untreated cells; blocks extracellular S100A4 from membrane RAGE of 24%. In addition, the relative migration of A375 cells (Boyden chamber) with sRAGE (150 ng/ml), untreated cells set as 100%; blocks extracellular S100A4 from membrane RAGE in experiment [4] turned out to be 63%.
